Reference: paper PMC10786891, “Massively parallel profiling of RNA-targeting CRISPR-Cas13d”
Changes are numbered by the printed parent chain.

T1: EsCas13d, nuclease-dead (Eubacterium siraeum, UniProt B0MS50, R295A;H300A;R849A;H854A)
T1 sequence: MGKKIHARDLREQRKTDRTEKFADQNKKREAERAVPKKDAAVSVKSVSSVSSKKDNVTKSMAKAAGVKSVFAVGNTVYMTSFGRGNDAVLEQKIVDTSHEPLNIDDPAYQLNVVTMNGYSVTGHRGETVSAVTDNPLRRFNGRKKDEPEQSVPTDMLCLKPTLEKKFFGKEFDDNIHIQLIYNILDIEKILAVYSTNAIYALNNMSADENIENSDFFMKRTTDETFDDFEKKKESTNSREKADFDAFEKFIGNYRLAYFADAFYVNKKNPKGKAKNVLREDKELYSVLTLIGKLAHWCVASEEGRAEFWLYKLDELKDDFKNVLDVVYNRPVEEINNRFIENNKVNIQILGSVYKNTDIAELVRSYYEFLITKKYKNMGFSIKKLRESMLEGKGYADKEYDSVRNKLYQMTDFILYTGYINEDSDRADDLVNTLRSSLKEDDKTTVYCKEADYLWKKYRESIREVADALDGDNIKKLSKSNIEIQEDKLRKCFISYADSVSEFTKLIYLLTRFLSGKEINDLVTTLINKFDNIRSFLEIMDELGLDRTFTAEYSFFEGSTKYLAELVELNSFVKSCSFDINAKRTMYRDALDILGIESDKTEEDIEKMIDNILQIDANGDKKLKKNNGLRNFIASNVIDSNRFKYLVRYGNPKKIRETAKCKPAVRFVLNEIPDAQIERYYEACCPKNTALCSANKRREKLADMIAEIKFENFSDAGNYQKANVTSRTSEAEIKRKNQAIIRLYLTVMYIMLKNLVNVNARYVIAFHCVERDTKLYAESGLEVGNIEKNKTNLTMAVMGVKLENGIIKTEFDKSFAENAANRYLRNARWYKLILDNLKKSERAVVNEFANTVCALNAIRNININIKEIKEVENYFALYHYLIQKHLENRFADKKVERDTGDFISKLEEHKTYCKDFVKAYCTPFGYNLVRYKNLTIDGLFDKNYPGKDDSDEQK

B1: target 1 insG 3' of 10,insA 3' of 3 (mixed)
RNA 1: CACCCGUGCAAAAAUGCAGGGGUCUAAAACUGAGCGGAUAACCUCUCUAUGG
RNA 2: GGGAAUGGAUCCACAUCUACGAAUUCGUACCAUAGAGAGGUUGAUCCGCUACACCGAGAUCGGAAGAGCACACGU
B2: target 1 insA 3' of 13,insU 3' of 13 (mixed)
RNA 1: B1 RNA 1
RNA 2: GGGAAUGGAUCCACAUCUACGAAUUCGUACCAUAGAGAGAUGUUAUCCGCUCACCGAGAUCGGAAGAGCACACGU
B3: target 1 insC 3' of 19,insG 3' of 4 (mixed)
RNA 1: B1 RNA 1
RNA 2: GGGAAUGGAUCCACAUCUACGAAUUCGUACCAUCAGAGAGGUUAUCCGCGUCACCGAGAUCGGAAGAGCACACGU
B4: target 1 insA 3' of 21,insG 3' of 9 (mixed)
RNA 1: B1 RNA 1
RNA 2: B3 RNA 2 with U33A, C34U, U45G, C46U, G48C, C49G, G50C
B5: target 2 MT 5'PFS CGC 3'PFS UUU (mixed)
RNA 1: CACCCGUGCAAAAUUGCAGGGGUCUAAAACCUUCUCCAAAUUGUUUCAUCCU
RNA 2: GGGAAUGGAUCCACAUCUACGAAUUCCGCAGGAUGAAACAAUUUGGAGAAGUUUAGAUCGGAAGAGCACACGU
B6: target 2 MT 5'PFS CGC 3'PFS CGA (mixed)
RNA 1: B5 RNA 1
RNA 2: B5 RNA 2 with U52C, U53G, U54A
B7: target 2 MT 5'PFS ACC 3'PFS CUU (mixed)
RNA 1: B5 RNA 1
RNA 2: B5 RNA 2 with C27A, G28C, U52C
B8: target 2 MT 5'PFS CGC 3'PFS CGU (mixed)
RNA 1: B5 RNA 1
RNA 2: B5 RNA 2 with U52C, U53G
B9: target 2 MT 5'PFS GGG 3'PFS UAC (mixed)
RNA 1: B5 RNA 1
RNA 2: B5 RNA 2 with C27G, C29G, U53A, U54C
B10: target 2 MT 5'PFS UAG 3'PFS AUC (mixed)
RNA 1: B5 RNA 1
RNA 2: B5 RNA 2 with C27U, G28A, C29G, U52A, U54C
B11: target 2 MT 5'PFS CAU 3'PFS CUA (mixed)
RNA 1: B5 RNA 1
RNA 2: B5 RNA 2 with G28A, C29U, U52C, U54A
B12: target 2 MT 5'PFS UAG 3'PFS AUG (mixed)
RNA 1: B5 RNA 1
RNA 2: B5 RNA 2 with C27U, G28A, C29G, U52A, U54G
B13: target 2 MT 5'PFS GCG 3'PFS UAC (mixed)
RNA 1: B5 RNA 1
RNA 2: B5 RNA 2 with C27G, G28C, C29G, U53A, U54C
B14: target 2 MT 5'PFS GGG 3'PFS UAG (mixed)
RNA 1: B5 RNA 1
RNA 2: B5 RNA 2 with C27G, C29G, U53A, U54G
B15: target 2 MT 5'PFS CGC 3'PFS UUC (mixed)
RNA 1: B5 RNA 1
RNA 2: B5 RNA 2 with U54C
B16: target 2 MT 5'PFS GAA 3'PFS AAG (mixed)
RNA 1: B5 RNA 1
RNA 2: B5 RNA 2 with C27G, G28A, C29A, U52A, U53A, U54G
B17: target 2 MT 5'PFS UAA 3'PFS CCA (mixed)
RNA 1: B5 RNA 1
RNA 2: B5 RNA 2 with C27U, G28A, C29A, U52C, U53C, U54A
B18: target 2 MT 5'PFS UUG 3'PFS CUA (mixed)
RNA 1: B5 RNA 1
RNA 2: B5 RNA 2 with C27U, G28U, C29G, U52C, U54A
B19: target 2 MT 5'PFS CGC 3'PFS CGC (mixed)
RNA 1: B5 RNA 1
RNA 2: B5 RNA 2 with U52C, U53G, U54C
B20: target 2 MT 5'PFS CAU 3'PFS CUU (mixed)
RNA 1: B5 RNA 1
RNA 2: B5 RNA 2 with G28A, C29U, U52C
B21: target 2 MT 5'PFS GCG 3'PFS ACA (mixed)
RNA 1: B5 RNA 1
RNA 2: B5 RNA 2 with C27G, G28C, C29G, U52A, U53C, U54A
B22: target 2 MT 5'PFS AUU 3'PFS CAU (mixed)
RNA 1: B5 RNA 1
RNA 2: B5 RNA 2 with C27A, G28U, C29U, U52C, U53A
B23: target 2 MT 5'PFS GCG 3'PFS ACC (mixed)
RNA 1: B5 RNA 1
RNA 2: B5 RNA 2 with C27G, G28C, C29G, U52A, U53C, U54C
B24: target 2 MT 5'PFS UAA 3'PFS CCG (mixed)
RNA 1: B5 RNA 1
RNA 2: B5 RNA 2 with C27U, G28A, C29A, U52C, U53C, U54G
B25: target 2 MT 5'PFS ACC 3'PFS CUC (mixed)
RNA 1: B5 RNA 1
RNA 2: B5 RNA 2 with C27A, G28C, U52C, U54C
B26: target 2 MT 5'PFS GCG 3'PFS ACG (mixed)
RNA 1: B5 RNA 1
RNA 2: B5 RNA 2 with C27G, G28C, C29G, U52A, U53C, U54G
B27: target 2 MT 5'PFS CAC 3'PFS AGU (mixed)
RNA 1: B5 RNA 1
RNA 2: B5 RNA 2 with G28A, U52A, U53G
B28: target 2 MT 5'PFS GAA 3'PFS AAU (mixed)
RNA 1: B5 RNA 1
RNA 2: B5 RNA 2 with C27G, G28A, C29A, U52A, U53A
B29: target 2 MT 5'PFS GCG 3'PFS UAA (mixed)
RNA 1: B5 RNA 1
RNA 2: B5 RNA 2 with C27G, G28C, C29G, U53A, U54A
B30: target 2 MT 5'PFS AUG 3'PFS CCU (mixed)
RNA 1: B5 RNA 1
RNA 2: B5 RNA 2 with C27A, G28U, C29G, U52C, U53C
B31: target 2 MT 5'PFS GAA 3'PFS AAC (mixed)
RNA 1: B5 RNA 1
RNA 2: B5 RNA 2 with C27G, G28A, C29A, U52A, U53A, U54C
B32: target 2 MT 5'PFS ACC 3'PFS CUG (mixed)
RNA 1: B5 RNA 1
RNA 2: B5 RNA 2 with C27A, G28C, U52C, U54G
B33: target 2 MT 5'PFS CGC 3'PFS CGG (mixed)
RNA 1: B5 RNA 1
RNA 2: B5 RNA 2 with U52C, U53G, U54G
B34: target 2 MT 5'PFS UGU 3'PFS UUU (mixed)
RNA 1: B5 RNA 1
RNA 2: B5 RNA 2 with C27U, C29U
B35: target 2 MT 5'PFS GAA 3'PFS AAA (mixed)
RNA 1: B5 RNA 1
RNA 2: B5 RNA 2 with C27G, G28A, C29A, U52A, U53A, U54A
B36: target 2 MT 5'PFS GCG 3'PFS ACU (mixed)
RNA 1: B5 RNA 1
RNA 2: B5 RNA 2 with C27G, G28C, C29G, U52A, U53C
B37: target 2 MT 5'PFS UAG 3'PFS AUA (mixed)
RNA 1: B5 RNA 1
RNA 2: B5 RNA 2 with C27U, G28A, C29G, U52A, U54A

Molecular target: T1, EsCas13d, nuclease-dead
Assay: crRNA (strand 1, pre-loaded); Mg2+; 40 mM Tris-HCl pH 7.5, 150 mM NaCl, 6 mM MgCl2, 1 mM DTT, 0.1% Tween-20, 0.2 mg/ml BSA; 25 C; 10 min per concentration, then washed
Details: tags: His6-TwinStrep-SUMO cleaved; N-terminal SNAP kept (SNAP-Surface 488); label: 3' end held by stalled T7 RNA polymerase

Binder	Kd [nM]
B1	45 ± 6
B2	14.2 ± 1.3
B3	21.5 ± 1.3
B4	46 ± 6
B5	17 ± 4
B6	6.7 ± 2.1
B7	6.3 ± 1.6
B8	3.5 ± 0.4
B9	9.6 ± 0.7
B10	3.3 ± 0.7
B11	4.1 ± 0.6
B12	3.21 ± 0.28
B13	13.1 ± 3.1
B14	8 ± 0.6
B15	12.1 ± 1.9
B16	8.2 ± 2.1
B17	20 ± 6
B18	14.9 ± 1.7
B19	4.1 ± 0.4

Binder	Kd [nM]
B20	4.6 ± 0.6
B21	16 ± 4
B22	5.7 ± 0.7
B23	30 ± 8
B24	5.6 ± 0.6
B25	7.4 ± 1.2
B26	14 ± 2.1
B27	2.7 ± 0.6
B28	16 ± 7
B29	9.6 ± 2.4
B30	~70
B31	11 ± 1.6
B32	9 ± 1.1
B33	7.3 ± 1.2
B34	50 ± 13
B35	5.7 ± 1.1
B36	13.8 ± 1.2
B37	2.63 ± 0.33
